Measurements taken from the DeepSol protein solubility set.

Test: soluble on expression in E. coli; label from the status in PepcDB or PDB records

Row | Sequence | soluble on expression in E. coli
1 | MGSDKIHHHHHHMRKLGFVLFVLITAVMTAQEEPLVSNIFQDTYILDALADISAQTGIPIIADTTVTGFITMELNEVPLEQALKMILMPGGYVFKKMDGFYLVGSPDPANPAFRYLAVTKTYKLKYITTADAQELLPAVYKSYVKFNEKNNMVTITAPEEIIQEFEEDLKKIDIPIPQVKISVIVTEVSKDYSNELGLNSLDYSFGSGQEFNENWSATLGLVTGIIDVQTDVFGQILAQLKLLEEDQKAKITADPWIIVKSGEKASLFLGERQVVLLQAEGAVSRIESIDVGVSIDIQPRVMDKEELELTLSPKVSHFAGEKLGTFAVKQNELSTTLFLKNGQTVVISGATIEDSAQTSSGVPILNKIPLIRYLFGGTTKKDSQKELYIFIKAEIQGSE | not soluble
2 | MGSDKIHHHHHHMRKLISIILLLLTININSQIVELRPVKVPAEHAEYFETIHTEYSIKTAQDAKDKGKLYGWWVAKRLNTNEDDFNYLFITVHPSVESLIDNEYWWQNSEEVTGYKPEILYKMADLFEFDKQYIYQVEMQIPDAAEAKYIIINFATPDDLNTVLKESKEIVMPHFQKNLIKSGMVGWGVATKITPQGSNYSSFSTWDSYDSLENMMKHLGGGAAIEGLPLNKLTPIEWSMRPIFRVITGTK | not soluble
3 | MGSDKIHHHHHHMRKMKNNDKSVITVDLNDPVKSLEYLEEAFQIGTFILKNSPVNFKRLAKVLSDLDTFYNLDFKTKIDISGQISGGGATRGYFPLGVESGLVDVFEKKESYSFGWPDNEIPDSDASNLSLVAPNIYPDHGYINPDDINGLIKDFANAAKKLSRLIEIILFNGKTVLPIDESSDFQSLLRSFRYYKKTEFDPPNTGANSLHTDWNLITLVYADADGYQYRDNEGNFQNIIPEMEDCLIVNFGDFLSAWTGGKIVSPWHQVVEAKKKDVRNSLVFFYYPAASSSAVKNPIYNQGEPLSLFVDQSDPLNRLWDFSKIETMNEMYAGKWKQVSRK | not soluble
4 | MGSDKIHHHHHHMRKVGMTTTIPVEVVYAAGLIPVDLNNIFVTHENPQSLVEEAEMAGYPRNLCAWIKGLYSTILQNDDIQTLIAVTQGDCSNTHALMETLEMAGVNVIPFAFPFDRDYDLLKLQMEKLINTLGTTWDEVYHAKKRLDAIRSKVHELDRLTWQGDRVRGWDNHLYQVCCSDLEGDPEDFGRRVDQYLAELPAKEPIKAKVRLAYIGVPPIMDDLYDYVEERGARVVFNEVQRQFTMPFATDDIVEQYRIYSYPYGIFYRLQDISRELEQRQVDGVIHYAQSFCYRQIEDLIVRQKLKYPILTLEGDKPNKLDARTRMRLDAFLDMLR | not soluble
5 | MGSDKIHHHHHHMRKWLLGVTAALALTALAACGTESSSTSGEEDQDVTIGYFPNLDHAAAIVGKEKGFFAEELGEEKVEFTHFPNGNDFIEALSTGSIDIGYVGPGPAINYYLTGGDVVVLGSAANGATLIVARDGSGIDTLDDFDGKSFCTPGNGCTHNVQLEIMLKELGLESNRVGGTVEHQSRIAPSNMVAMFEQGQIDAAAAPEPWGTYLVEELGAHVVAEWNDVFLGEELASVVVVTTREFLENHPEQVEAFLRAHVKSVEFAQEDVDATLETVNDALFDLTQNRLPEDVLYKAWERMAVTTDTYPDALQAWADASYELKFMDEDPNLDGFVDTSLLDSILSE | not soluble
6 | MGSDKIHHHHHHMRLKITHRTEYRYDAPVQYLLQRLRLLPVSGQTQTVLSWALKVEGAREEVRFTDHYGNDTRLLSVEGDHDFITVEASGEVVTRDTSGVCGSHQGFAPLWLFAQETPLTAIGGGIRKLAEAVGTGTDIERLHRLMAMIGERVAYTPGSTKATTPAEEALALKTGVCQDHSHIFAAAARAMGFPSRYVSGYLMMDAVEQAASHAWAEAHVPGLGWVAFDPANGISPDERYVKVATGRDYRDASPVSGIRQGQAEERLAVTVTVEQ | not soluble
7 | MGSDKIHHHHHHMRLTHVDQLNLPFGTLSSYHPYASAPGEAVPVSFDQQRHVGAGERPGSWMAISVSMPKAISREELERAWLEVIERHGTLRTVFSTGMGGEVQQHRIDVGPGKWIDHAVAPGESINEALRAVLNRQCSPYSRPSHSLCIIDAHPRPTVIIGSDHSHVDMWSMLVIVRDLLAALDMELPVEPPLAFESHTAELLAAPPAPERIHQRWREILEAGGGKMPQFPLPLGDAISMPERVEVRDIFGVNGLAIYSARARAQQVSSLALTISVMADVTAALADLPLRAVFPVHSRFDQRWHDSVGWFISNSVIEVPDSDPHTAAQAVREAVSLGSYPLAELLEPWGGMPETPGMFAISWLDLRRLPVSIDDIGLQAQYVSASLRTDGVMLWFILDRSGAHLRCRYPDSLVARENVGRWIDAIVAQMRAEAGTVNLQAGGEQLTLRHGTRADISEIAPLLARNAADPCELVDLEHALDLLTHESSHFLAVVRNARGKIIAAMQLTIVPEFSRGGALHLHIEGPFIIPEYRTTDLDKKLRAWAVEHGRARGVKVEEVVG | not soluble
8 | MGSDKIHHHHHHMRNAVIFTGIPMQYPLELTFKFWALAPQISVIDAQGNLVFYVKQKLFKLKEAITIFADVERTRPLYYIKADRIIDFSARYEFTDSNGTNIGAVKRRGLKSLWRARYDIFDGDTTTLNIQEKNPWVKIADALFAEIPIVGIFTGYVFNPVYLVSRSDGTVVMRLEKIPSFLSRKFTIKQVDQISDREEQQVLLSLMMMLLLERNRG | not soluble
9 | MGSDKIHHHHHHMRPAFAGIDFGTSNSTVGVVRNGQPHLVALEGGQVTLPSAVFFNFEDGRICFGRQAIANYTDSVEGRLMRSLKSVLGSSLAHEKTRIKARSIGFMEIIGLFLGHLRKKLEEDGGDLVETVVLGRPVQFVDDDPQADANAQSDLEKAAHAQGFKHIAFQFEPIAAALDYEQRVTREELALIIDMGGGTSDFSVVRVSPERARLPDRKDDILASRGVHIGGTDFDRLLSIAHVMPQLGYLTPTKDGKRNLPASYFIDLATWQRINLVYTAKAMTHLRQIRYEAARADLVDRFIHIVEHRYGHALAALVEKAKIELTDLSSAEVAVRLSDVEFAAEITRDGLDATIAREIERVTATVAETMRDAAVKPSDITAVFLTGGSTAIPLARREILSLVPQASVIDGDMFGSVGLGLALDAQRKFG | not soluble
10 | MGSDKIHHHHHHMRPETAIIEIHGQYRIHTEFYGNPAAQQTIILVNGSLSTTASFAQTVKYLQPHYNVVLYDQPYAGQSKPHNENHTPISKECEARILLELIERFRAEVVMSFSWGGVATLLALAQRPGRIRRAVVNSFSPQLNPAMLDYLHRGLDYLAACDRTQIGNLVNETIGRYLPQLFKRYNFRHVSSLDEHEYHQMHFHIREVLRLNADSYTESFAGIEIPMLFMNGELDIYTTPHEARQFGQLIRGAEFHTIRNAGHFIDVEHKAAWQQTQDALLAFLRPQRTQPLNPIYRPQPNGASVPLAALAS | not soluble
11 | MGSDKIHHHHHHMRQGAGLGYRRDLAEGFLQLRNNDRIQFMEIAPENWIKMGGFARYQFDKVAEKIPILIHGLSLSLGGQAPLDKELLSSIKAMIKQYNTPFFSDHLSFCECDGHLYDLLPMPFTDEAVKHTAARIREVQDFLEIQISVENTSYYLHSETSTMNEVEFLNAIVQEANCGIHLDVNNIYVNAVNHGLLDPHVFIDNVDLKRVNYIHIAGHDDEHAATEVQIQTSESFNKIKGDLRHLPPLLVDTHGENVKGTVWDLLEYTYARLSHMPPTLLERDFNFPPFEKLCKEVDIIHQLQQKYVKKRGLSWLKI | not soluble
12 | MGSDKIHHHHHHMRREKKKGSDDQMADENEEYLMETRFSAEHIGLKLLEKKIITEQQFEDALRRQKSRGGGLGDVLIELGYLTEERLNQLLNAFPSVPKTIEDTGLDASFLADLVLKHSLSLREFRLADMVRRVKLPLSIVDSIVETLQREKMLEVKGGDGLARATYRFSITGIGENRAAGLLEICRYVGPAPVSLSDYREKVLTQSIQRVVVNPLTLKNALSHLVINPDLLKALGPALTSGQTIFLYGPTGNGKSSIAEAIGNVLPGTIFVPYAVYVEGELITVFDPVNHVPAPSETEDGKMDHRWLQIRRPVIMTGGELTLRTLDLEFNPISKFYIAPLQMKANNGLFIIDDFGRQQIEPKMLLNRWIVPLEKRVDFLTLHTGMKFSIPFDQLVIFATNLKPMELADEAFLRRIRYKIFIDYPSKEDFEVIFRKACEMKNVAFDPKAFQFLQDIYEKLGIQRSANHPRDLLEHIIDQSRYYGQEPELTVEGVSAAWEQNFIKNF | not soluble
13 | MGSDKIHHHHHHMRRLLTGCLLSSARPLKSRLPLLMSSSLPSSAGKKPKQATLARFFTSMKNKPTEGTPSPKKSSKHMLEDRMDNVSGEEEYATKKLKQTAVTHTVAAPSSMGSNFSSIPSSAPSSGVADSPQQSQRLVGEVEDALSSNNNDHYSSNIPYSEVCEVFNKIEAISSRLEIIRICSDFFIKIMKQSSKNLIPTTYLFINRLGPDYEAGLELGLGENLLMKTISETCGKSMSQIKLKYKDIGDLGEIAMGARNVQPTMFKPKPLTVGEVFKNLRAIAKTQGKDSQLKKMKLIKRMLTACKGIEAKFLIRSLESKLRIGLAEKTVLISLSKALLLHDENREDSPDKDVPMDVLESAQQKIRDAFCQVPNYEIVINSCLEHGIMNLDKYCTLRPGIPLKPMLAKPTKAINEVLDRFQGETFTSEYKYDGERAQVHLLNDGTMRIYSRNGENMTERYPEINITDFIQDLDTTKNLILDCEAVAWDKDQGKILPFQVLSTRKRKDVELNDVKVKVCLFAFDILCYNDERLINKSLKERREYLTKVTKVVPGEFQYATQITTNNLDELQKFLDESVNHSCEGLMVKMLEGPESHYEPSKRSRNWLKLKKDYLEGVGDSLDLCVLGAYYGRGKRTGTYGGFLLGCYNQDTGEFETCCKIGTGFSDEMLQLLHDRLTPTIIDGPKATFVFDSSAEPDVWFEPTTLFEVLTADLSLSPIYKAGSATFDKGVSLRFPRFLRIREDKGVEDATSSDQIVELYENQSHMQN | not soluble
14 | MGSDKIHHHHHHMRTPTCDITTHERWFGAFTAPYLEEGPEHVGPVRLKIEHTHHVLSNARSIVDSEDFSPLVQRAALLAALYHDTGRFPQYRRWRTFSDPRSVNHALLGGRTLREAGALDDEPVEVRRLVLGAVVMHNRFRVPSGIPDDARTVTDVVRDADKLDIFRVMAPHLAPGAERDKVVVLHVEDAPGKWSPVIVADVLAGRVASYADLRYVNDFRLLLGTWVRDLRFPASRRMLAASGLVENILSALPASDDIARARTRILSDLADAARGRGGA | not soluble
15 | MGSDKIHHHHHHMRVAPAYGKIALLISVSFSHGRHSVQDKNFDALAGKFAKNIYGTPKGEVRAAVLWRDISQAMTQLPEGPLRILDAGGGFGFFSQKLAKLGHSVTLCDISSEMLALGQAQITEYENNSGEKLDITLLHAPIQSLTREELGQFDLILCHAVAEWLSDAKQTLAGLTQLLKPQGLFSLMFYNKEAMRFHSLISGNFDYVAADFKVKKKVGLTPSYPLYIDDVRGWVSDWQMELVTASGVRVIHDYLKTHQPPNSDFSQLLEMELQYSTHPAYIGLGRYVHFITRWQR | not soluble
16 | MGSDKIHHHHHHMRVILAQPRGFCAGVVRAIEIVDRALQQHGAPVYVRHEIVHNRHVVDNLRQKGARFVEELDEVPQGAVAIFSAHGVAQTVERDAEARGLDVLDATCPLVTKVHVQGRQYVGAGRTLILIGHAGHPEVEGTVGQIPGKVLLVQSEAEVENLDLPLDTPLAYVTQTTLSVDDTRGIIDALLSRFTDIVGPDTRDICYATQNRQAAVRELSKQVDVLLVVGATNSSNSNRLREIGSESGVASYLVADGSEVKPEWFANVQTVGITAGASAPEEMVKNVIDALSALGPVDVTTMAGREEKVEFKLPSKLMQPLAAREV | not soluble
17 | MGSDKIHHHHHHMRVITVAGPPSVGKTSVVVKTATTLAAQGHRLGIVKFDSLSTSDDQVYRRAGLPVVVGLSGNVCPDHFFVSNIDDCVDWGRTHGVDILVAESAGLCNRCSPHVQGVQAICVVDNLSGVHTPRKIGPMLKLADVVVITKGDIVSQAEREVFAYNVRLANPRAQVMQFHGITGQGASDLAARMLCAPVVDALEGRRLRFSMPSAVCPYCIGETAIGVDHQRGNVRKMSFAEPAR | not soluble
